The values that follow come from paper PMC7544621 (Structure (London, England : 1993), 2020).

In the experiment the target is T1, monomeric head domain of HA from H1 A/Solomon Islands/03/2006 (Influenza A virus A/Solomon …).
T1 chain: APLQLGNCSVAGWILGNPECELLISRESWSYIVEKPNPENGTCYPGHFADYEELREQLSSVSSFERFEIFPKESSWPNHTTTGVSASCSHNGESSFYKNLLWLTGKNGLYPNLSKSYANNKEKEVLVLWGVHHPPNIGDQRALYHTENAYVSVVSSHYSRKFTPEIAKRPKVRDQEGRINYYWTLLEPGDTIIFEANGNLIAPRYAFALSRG
As to the kind of experiment: BLI. (In general: BLI is a label-free optical method that tracks binding on a fibre tip over time.)

B1: C05 IgG (anti-influenza human mAb C05) (antibody, V domains shown)
VH: QVQLQESGGGLVQPGESLRLSCVGSGSSFGESTLSYYAVSWVRQAPGKGLEWLSIINAGGGDIDYADSVEGRFTISRDNSKETLYLQMTNLRVEDTGVYYCAKHMSMQQVVSAGWERADLVGDAFDVWGQGTMVTVSS
VL: DIQLTQSPSSLSASVGDRVTLTCQASQDIRKFLNWYQQKPGKGPKLLIYDASNLQRGVPSRFSGGGSGTDFTLIISSLQPEDVGTYYCQQYDGLPFTFGGGTKVVIK
The term Kd denotes the concentration at which binding is half-saturated. Higher therefore signals weaker binding. On to B1, for which the Kd amounted to 88 nM.
